Biological target: CD33 (UniProt P20138 18-364, limits assumed)
Test: cell-based or functional assay

CD33, sequence (P20138 18-364 limits assumed): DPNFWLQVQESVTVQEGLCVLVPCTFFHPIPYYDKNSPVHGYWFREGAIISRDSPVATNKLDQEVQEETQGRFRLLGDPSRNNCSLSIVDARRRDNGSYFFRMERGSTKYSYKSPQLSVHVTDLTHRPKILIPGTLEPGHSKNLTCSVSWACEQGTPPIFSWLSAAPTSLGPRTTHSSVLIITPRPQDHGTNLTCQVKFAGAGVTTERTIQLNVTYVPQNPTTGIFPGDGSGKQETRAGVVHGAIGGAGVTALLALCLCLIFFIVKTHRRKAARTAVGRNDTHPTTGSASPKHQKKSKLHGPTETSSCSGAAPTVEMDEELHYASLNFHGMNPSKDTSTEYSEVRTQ

Row | Binder | EOL-1 IC50 (in vitro cell proliferation assay) [mg/L]
1 | CD33 CBI-PBD ADC2-2 (antibody, V domains shown) VH: QVQLVQSGAEVKKPGSSVKVSCKASGGIFSNHAISWVRQAPGQGLEWMGGIIPIFGTANYAQKFQGRVTITADESTSTAFMELSSLRSEDTAVYYCAREWADVFDIWGQGTMVTVSS VL: EIVLTQSPLSLPVTPGEPASISCRSSQSLLHSNGYNYLDWYLQKPGQSPQLLIYLGVNSVSGVPDRFSGSGSGTDFTLKISRVEAEDVGVYYCMQALQTPWTFGQGTKVEIK | 0.37
2 | CD33 CBI-PBD ADC3-2 (antibody, V domains shown) VH: QVQLVQSGAEVKKPGSSVKVSCKASGGIFSNHAISWVRQAPGQGLEWMGGIIPIFGTANYAQKFQGRVTITADESTSTAFMELSSLRSEDTAVYYCAREWADVFDIWGQGTMVTVSS VL: EIVLTQSPLSLPVTPGEPASISCRSSQSLLHSNGYNYLDWYLQKPGQSPQLLIYLGVNSVSGVPDRFSGSGSGTDFTLKISRVEAEDVGVYYCMQALQTPWTFGQGTKVEIK | 0.0181

Reference: patent US20160279261A1 (Genentech, published 2016)
